According to the supplement of paper PMC9112550, “Optimization of the antimicrobial peptide Bac7 by deep mutational scanning” (BMC Biology, 2022):

System: Escherichia coli TOP10
Assay: shrunken log2 fold change of peptide-encoding DNA abundance (4.5 h post-induction vs induction); higher = less antimicrobial activity (less host growth inhibition)
Conditions: time post-induction: 4.5 h; library: site-saturation at positions 5, 18, 19, 20
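Also: peptides expressed intracellularly from a pBAD plasmid library in pooled LB shake-flask culture, induced with 0.3% L-arabinose, DNA abundance read by NGS, three biological replicates, DESeq2 with apeglm shrinkage.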

| Sequence | shrunken log2 fold change |
| --- | --- |
| RRIRWRPPRLPRPRPRPMNQPRP | -0.33 |
| RRIRWRPPRLPRPRPRPMQGPRP | 0.00185 |
| RRIRWRPPRLPRPRPRPMSFPRP | 0.00806 |
| RRIRWRPPRLPRPRPRPMSLPRP | -0.0247 |
| RRIRWRPPRLPRPRPRPMSVPRP | 0.0691 |
| RRIRWRPPRLPRPRPRPMTYPRP | -0.289 |
| RRIRWRPPRLPRPRPRPMVNPRP | -0.0548 |
| RRIRWRPPRLPRPRPRPMVTPRP | -0.072 |
| RRIRWRPPRLPRPRPRPMWFPRP | -0.487 |
| RRIRWRPPRLPRPRPRPMWPPRP | 0.214 |
| RRIRWRPPRLPRPRPRPMYFPRP | -0.555 |
| RRIRWRPPRLPRPRPRPMYVPRP | -0.0461 |
| RRIRWRPPRLPRPRPRPNAIPRP | -0.123 |
| RRIRWRPPRLPRPRPRPNAPPRP | 0.328 |
| RRIRWRPPRLPRPRPRPNASPRP | 0.267 |
| RRIRWRPPRLPRPRPRPNCDPRP | 0.14 |
| RRIRWRPPRLPRPRPRPNCWPRP | 0.533 |
| RRIRWRPPRLPRPRPRPNDWPRP | 0.00443 |
| RRIRWRPPRLPRPRPRPNEVPRP | 0.0902 |
| RRIRWRPPRLPRPRPRPNHLPRP | -0.281 |
| RRIRWRPPRLPRPRPRPNIPPRP | -0.476 |
| RRIRWRPPRLPRPRPRPNKKPRP | -0.076 |
| RRIRWRPPRLPRPRPRPNKTPRP | 0.0629 |
| RRIRWRPPRLPRPRPRPNMVPRP | -0.0148 |
| RRIRWRPPRLPRPRPRPNMYPRP | -0.436 |

| Sequence | shrunken log2 fold change |
| --- | --- |
| RRIRWRPPRLPRPRPRPNNTPRP | -0.587 |
| RRIRWRPPRLPRPRPRPNNVPRP | -0.207 |
| RRIRWRPPRLPRPRPRPNQIPRP | -0.189 |
| RRIRWRPPRLPRPRPRPNQLPRP | -0.208 |
| RRIRWRPPRLPRPRPRPNSYPRP | -0.197 |
| RRIRWRPPRLPRPRPRPNTPPRP | 0.144 |
| RRIRWRPPRLPRPRPRPNWCPRP | -0.0188 |
| RRIRWRPPRLPRPRPRPNYCPRP | -0.113 |
| RRIRWRPPRLPRPRPRPNYHPRP | -0.486 |
| RRIRWRPPRLPRPRPRPNYNPRP | -0.752 |
| RRIRWRPPRLPRPRPRPNYPPRP | -0.157 |
| RRIRWRPPRLPRPRPRPPAPPRP | 1.03 |
| RRIRWRPPRLPRPRPRPPEGPRP | 0.163 |
| RRIRWRPPRLPRPRPRPPFFPRP | 0.224 |
| RRIRWRPPRLPRPRPRPPGVPRP | 0.525 |
| RRIRWRPPRLPRPRPRPPGWPRP | 0.527 |
| RRIRWRPPRLPRPRPRPPHDPRP | 0.738 |
| RRIRWRPPRLPRPRPRPPHFPRP | 0.701 |
| RRIRWRPPRLPRPRPRPPIDPRP | 0.1 |
| RRIRWRPPRLPRPRPRPPIEPRP | 0.702 |
| RRIRWRPPRLPRPRPRPPIMPRP | 0.271 |
| RRIRWRPPRLPRPRPRPPIQPRP | 0.277 |
| RRIRWRPPRLPRPRPRPPISPRP | 0.172 |
| RRIRWRPPRLPRPRPRPPKKPRP | 1.27 |
| RRIRWRPPRLPRPRPRPPMKPRP | 0.234 |

| Sequence | shrunken log2 fold change |
| --- | --- |
| RRIRWRPPRLPRPRPRPPMPPRP | 0.444 |
| RRIRWRPPRLPRPRPRPPNYPRP | -0.0821 |
| RRIRWRPPRLPRPRPRPPPMPRP | 0.72 |
| RRIRWRPPRLPRPRPRPPQRPRP | 0.548 |
| RRIRWRPPRLPRPRPRPPRAPRP | 0.782 |
| RRIRWRPPRLPRPRPRPPRCPRP | 0.483 |
| RRIRWRPPRLPRPRPRPPSRPRP | 0.314 |
| RRIRWRPPRLPRPRPRPPVPPRP | 0.469 |
| RRIRWRPPRLPRPRPRPPWIPRP | 1.44 |
| RRIRWRPPRLPRPRPRPPWQPRP | 0.289 |
| RRIRWRPPRLPRPRPRPQASPRP | -0.11 |
| RRIRWRPPRLPRPRPRPQCCPRP | -0.0128 |
| RRIRWRPPRLPRPRPRPQCTPRP | 0.11 |
| RRIRWRPPRLPRPRPRPQCYPRP | -0.252 |
| RRIRWRPPRLPRPRPRPQDFPRP | 0.203 |
| RRIRWRPPRLPRPRPRPQDHPRP | 0.178 |
| RRIRWRPPRLPRPRPRPQDPPRP | 0.0126 |
| RRIRWRPPRLPRPRPRPQDTPRP | -0.0161 |
| RRIRWRPPRLPRPRPRPQGDPRP | -0.0316 |
| RRIRWRPPRLPRPRPRPQIMPRP | -0.0336 |
| RRIRWRPPRLPRPRPRPQIPPRP | -0.493 |
| RRIRWRPPRLPRPRPRPQKMPRP | -0.0924 |
| RRIRWRPPRLPRPRPRPQKVPRP | 0.166 |
| RRIRWRPPRLPRPRPRPQLHPRP | 0.123 |
| RRIRWRPPRLPRPRPRPQLKPRP | 0.147 |

| Sequence | shrunken log2 fold change |
| --- | --- |
| RRIRWRPPRLPRPRPRPQLWPRP | 1.02 |
| RRIRWRPPRLPRPRPRPQNQPRP | -0.265 |
| RRIRWRPPRLPRPRPRPQPDPRP | 0.32 |
| RRIRWRPPRLPRPRPRPQPIPRP | 0.813 |
| RRIRWRPPRLPRPRPRPQQPPRP | 0.383 |
| RRIRWRPPRLPRPRPRPQSAPRP | 0.372 |
| RRIRWRPPRLPRPRPRPQVWPRP | 0.576 |
| RRIRWRPPRLPRPRPRPQWSPRP | -0.0983 |
| RRIRWRPPRLPRPRPRPQYKPRP | -0.696 |
| RRIRWRPPRLPRPRPRPRAHPRP | 0.167 |
| RRIRWRPPRLPRPRPRPRCCPRP | 0.448 |
| RRIRWRPPRLPRPRPRPRFIPRP | -0.00733 |
| RRIRWRPPRLPRPRPRPRHPPRP | 0.382 |
| RRIRWRPPRLPRPRPRPRHTPRP | -0.0876 |
| RRIRWRPPRLPRPRPRPRLAPRP | 0.84 |
| RRIRWRPPRLPRPRPRPRMDPRP | 0.211 |
| RRIRWRPPRLPRPRPRPRMNPRP | -0.111 |
| RRIRWRPPRLPRPRPRPRNDPRP | 0.126 |
| RRIRWRPPRLPRPRPRPRNKPRP | 0.0794 |
| RRIRWRPPRLPRPRPRPRQCPRP | 0.137 |
| RRIRWRPPRLPRPRPRPRQHPRP | 0.251 |
| RRIRWRPPRLPRPRPRPRRCPRP | 0.224 |
| RRIRWRPPRLPRPRPRPRSNPRP | -0.133 |
| RRIRWRPPRLPRPRPRPRSTPRP | 0.551 |
| RRIRWRPPRLPRPRPRPRTCPRP | -0.045 |

| Sequence | shrunken log2 fold change |
| --- | --- |
| RRIRWRPPRLPRPRPRPRTYPRP | -0.331 |
| RRIRWRPPRLPRPRPRPRVGPRP | 0.563 |
| RRIRWRPPRLPRPRPRPRVMPRP | 0.275 |
| RRIRWRPPRLPRPRPRPRVSPRP | 0.158 |
| RRIRWRPPRLPRPRPRPRWWPRP | 0.0648 |
| RRIRWRPPRLPRPRPRPRYEPRP | 0.0756 |
| RRIRWRPPRLPRPRPRPRYPPRP | 0.175 |
| RRIRWRPPRLPRPRPRPSAGPRP | 0.231 |
| RRIRWRPPRLPRPRPRPSAVPRP | 0.6 |
| RRIRWRPPRLPRPRPRPSCPPRP | -0.33 |
| RRIRWRPPRLPRPRPRPSDNPRP | -0.14 |
| RRIRWRPPRLPRPRPRPSEMPRP | -0.148 |
| RRIRWRPPRLPRPRPRPSFLPRP | -0.351 |
| RRIRWRPPRLPRPRPRPSFYPRP | -0.328 |
| RRIRWRPPRLPRPRPRPSGFPRP | 0.121 |
| RRIRWRPPRLPRPRPRPSGNPRP | -0.0162 |
| RRIRWRPPRLPRPRPRPSGQPRP | -0.0599 |
| RRIRWRPPRLPRPRPRPSIMPRP | -0.0893 |
| RRIRWRPPRLPRPRPRPSINPRP | -0.0638 |
| RRIRWRPPRLPRPRPRPSIPPRP | 0.46 |
| RRIRWRPPRLPRPRPRPSIWPRP | -0.353 |
| RRIRWRPPRLPRPRPRPSIYPRP | -0.305 |
| RRIRWRPPRLPRPRPRPSLDPRP | -0.00135 |
| RRIRWRPPRLPRPRPRPSLGPRP | 0.338 |
| RRIRWRPPRLPRPRPRPSMKPRP | -0.199 |

| Sequence | shrunken log2 fold change |
| --- | --- |
| RRIRWRPPRLPRPRPRPSMQPRP | -0.0561 |
| RRIRWRPPRLPRPRPRPSMSPRP | 0.0258 |
| RRIRWRPPRLPRPRPRPSPSPRP | 0.375 |
| RRIRWRPPRLPRPRPRPSQNPRP | 0.236 |
| RRIRWRPPRLPRPRPRPSSSPRP | 0.00035 |
| RRIRWRPPRLPRPRPRPSTLPRP | -0.253 |
| RRIRWRPPRLPRPRPRPSTNPRP | -0.127 |
| RRIRWRPPRLPRPRPRPSTTPRP | 0.221 |
| RRIRWRPPRLPRPRPRPSVHPRP | -0.136 |
| RRIRWRPPRLPRPRPRPSWFPRP | -0.0343 |
| RRIRWRPPRLPRPRPRPTAAPRP | 1.65 |
| RRIRWRPPRLPRPRPRPTAGPRP | 0.965 |
| RRIRWRPPRLPRPRPRPTATPRP | 0.528 |
| RRIRWRPPRLPRPRPRPTFKPRP | 0.132 |
| RRIRWRPPRLPRPRPRPTFLPRP | 0.146 |
| RRIRWRPPRLPRPRPRPTFYPRP | -0.298 |
| RRIRWRPPRLPRPRPRPTGAPRP | 0.337 |
| RRIRWRPPRLPRPRPRPTGGPRP | 0.511 |
| RRIRWRPPRLPRPRPRPTGSPRP | 0.123 |
| RRIRWRPPRLPRPRPRPTHDPRP | 0.196 |
| RRIRWRPPRLPRPRPRPTHLPRP | 0.0424 |
| RRIRWRPPRLPRPRPRPTHQPRP | -0.0304 |
| RRIRWRPPRLPRPRPRPTICPRP | -0.106 |
| RRIRWRPPRLPRPRPRPTIMPRP | -0.0533 |
| RRIRWRPPRLPRPRPRPTIYPRP | 0.113 |
